Test results from IntAct's records for PubMed 28934384.

B1: Protein kinase C epsilon type (Homo sapiens), Q02156 (parent)
chain: MVVFNGLLKIKICEAVSLKPTAWSLRHAVGPRPQTFLLDPYIALNVDDSRIGQTATKQKTNSPAWHDEFVTDVCNGRKIELAVFHDAPIGYDDFVANCTIQFEELLQNGSRHFEDWIDLEPEGRVYVIIDLSGSSGEAPKDNEERVFRERMRPRKRQGAVRRRVHQVNGHKFMATYLRQPTYCSHCRDFIWGVIGKQGYQCQVCTCVVHKRCHELIITKCAGLKKQETPDQVGSQRFSVNMPHKFGIHNYKVPTFCDHCGSLLWGLLRQGLQCKVCKMNVHRRCETNVAPNCGVDARGIAKVLADLGVTPDKITNSGQRRKKLIAGAESPQPASGSSPSEEDRSKSAPTSPCDQEIKELENNIRKALSFDNRGEEHRAASSPDGQLMSPGENGEVRQGQAKRLGLDEFNFIKVLGKGSFGKVMLAELKGKDEVYAVKVLKKDVILQDDDVDCTMTEKRILALARKHPYLTQLYCCFQTKDRLFFVMEYVNGGDLMFQIQRSRKFDEPRSRFYAAEVTSALMFLHQHGVIYRDLKLDNILLDAEGHCKLADFGMCKEGILNGVTTTTFCGTPDYIAPEILQELEYGPSVDWWALGVLMYEMMAGQPPFEADNEDDLFESILHDDVLYPVWLSKEAVSILKAFMTKNPHKRLGCVASQNGEDAIKQHPFFKEIDWVLLEQKKIKPPFKPRIKTKRDVNNFDQDFTREEPVLTLVDEAIVKQINQEEFKGFSYFGEDLMP
partner: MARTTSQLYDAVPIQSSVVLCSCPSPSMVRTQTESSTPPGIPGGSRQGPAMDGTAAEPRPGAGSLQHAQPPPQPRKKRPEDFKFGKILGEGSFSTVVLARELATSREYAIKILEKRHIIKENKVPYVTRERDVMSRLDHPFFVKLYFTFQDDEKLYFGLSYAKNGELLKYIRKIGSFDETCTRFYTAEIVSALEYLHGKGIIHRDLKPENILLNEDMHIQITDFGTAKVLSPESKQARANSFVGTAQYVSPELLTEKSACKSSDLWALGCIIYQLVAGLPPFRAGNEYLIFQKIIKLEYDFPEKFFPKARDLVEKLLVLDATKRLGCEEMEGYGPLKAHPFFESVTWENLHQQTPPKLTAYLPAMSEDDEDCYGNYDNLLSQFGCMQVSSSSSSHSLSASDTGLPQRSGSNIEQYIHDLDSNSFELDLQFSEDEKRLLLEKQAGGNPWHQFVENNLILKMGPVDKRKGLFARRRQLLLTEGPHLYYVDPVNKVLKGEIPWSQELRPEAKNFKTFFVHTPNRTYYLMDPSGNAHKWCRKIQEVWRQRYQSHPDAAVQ
B2: Protein kinase C epsilon type (Homo sapiens), Q02156 (parent)
chain: B1 chain

Variants of: B1
Settings: with pdpk1_human PDPK1, O15530

With E599K as the variant, how does the “effect of a mutation on the interaction” value read?
The value was “with no effect”.

Variants of: B2
Settings: with sin1_human MAPKAP1, Q9BPZ7
Sequence of sin1_human MAPKAP1, Q9BPZ7 (Q9BPZ7 whole entry): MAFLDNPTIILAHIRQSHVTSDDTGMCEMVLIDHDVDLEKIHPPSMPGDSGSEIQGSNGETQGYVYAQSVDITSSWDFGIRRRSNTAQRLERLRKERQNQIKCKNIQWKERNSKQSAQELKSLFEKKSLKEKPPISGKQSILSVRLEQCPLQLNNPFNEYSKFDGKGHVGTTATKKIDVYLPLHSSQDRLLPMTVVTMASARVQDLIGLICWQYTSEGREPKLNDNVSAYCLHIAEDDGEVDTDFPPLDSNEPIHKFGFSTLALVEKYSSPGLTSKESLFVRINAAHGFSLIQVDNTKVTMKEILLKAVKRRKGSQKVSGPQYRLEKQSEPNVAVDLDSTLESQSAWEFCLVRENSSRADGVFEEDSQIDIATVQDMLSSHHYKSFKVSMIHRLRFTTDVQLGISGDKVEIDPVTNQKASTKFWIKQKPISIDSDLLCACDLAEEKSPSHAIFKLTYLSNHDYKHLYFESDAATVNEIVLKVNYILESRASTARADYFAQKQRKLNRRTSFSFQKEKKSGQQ

For E599K, which “effect of a mutation on the interaction” value is on record?
The value was “increasing interaction strength”.
